The EC50 is the midpoint of the concentration-response curve. Low values mean greater potency, high ones weaker potency. As usually defined, the Kd is the concentration at which binding is half-saturated.

In one test the target is T1, Mouse TREM2, on cells (mouse, UniProt Q99NH8 19-227).
T1 chain: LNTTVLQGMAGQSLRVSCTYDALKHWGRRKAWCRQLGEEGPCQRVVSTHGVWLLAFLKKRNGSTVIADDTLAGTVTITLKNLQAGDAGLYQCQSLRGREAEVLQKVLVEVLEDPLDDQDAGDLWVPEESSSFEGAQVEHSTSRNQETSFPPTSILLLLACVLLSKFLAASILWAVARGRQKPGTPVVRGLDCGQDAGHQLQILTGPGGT
Nature of the test: FACS cell binding; FIG. 1D.

Test [1] concerns the target T2, His-tagged TREM2 ECD (ecto domain residues 19-172 of human TREM2, C-terminal 6X-His tag) (UniProt Q9NZC2 19-172).
T2 chain: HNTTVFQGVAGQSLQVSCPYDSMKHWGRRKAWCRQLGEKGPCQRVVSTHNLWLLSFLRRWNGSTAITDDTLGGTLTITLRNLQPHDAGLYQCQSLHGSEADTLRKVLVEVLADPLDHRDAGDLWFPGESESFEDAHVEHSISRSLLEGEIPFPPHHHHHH
Put plainly: SPR (Biacore).

B1: RS9.F6 (antibody, V domains shown)
VH: QVQLQQPGAELVKPGASVKLSCKASGYTFTSYWMHWVKQSPGRGLEWIGRSDPTTGGTNYNEKFKTKATLTVDKPSSTAYMQLSSLTSDDSAVYYCVRTSGTGDYWGQGTSLTVSS
VL: DVVMTQTPLSLPVSLGDQASISCRSSQSLVHNNGNTFLHWYLQKPGQSPKLLIYKVSNRFSGVPDRFSGSGSGTDFTLKISRVEAEDLGVYFCSQTTHVPPTFGGGTKLEIK
As for B1, in the test with Mouse TREM2, on cells, the 50% effective concentration (EC50) came out at 6.81 nM.

B2: RS9.F6/3C.35.21.17 (bispecific antibody)
heavy 1: QVQLQQPGAELVKPGASVKLSCKASGYTFTSYWMHWVKQSPGRGLEWIGRSDPTTGGTNYNEKFKTKATLTVDKPSSTAYMQLSSLTSDDSAVYYCVRTSGTGDYWGQGTSLTVSSASTKGPSVFPLAPSSKSTSGGTAALGCLVKDYFPEPVTVSWNSGALTSGVHTFPAVLQSSGLYSLSSVVTVPSSSLGTQTYICNVNHKPSNTKVDKKVEPKSCDKTHTCPPCPAPEAAGGPSVFLFPPKPKDTLMISRTPEVTCVVVDVSHEDPEVKFNWYVDGVEVHNAKTKPREEQYNSTYRVVSVLTVLHQDWLNGKEYKCKVSNKALGAPIEKTISKAKGQPREPQVYTLPPSRDELTKNQVSLWCLVKGFYPSDIAVLWESYGTEWASYKTTPPVLDSDGSFFLYSKLTVTKEEWQQGFVFSCSVMHEALHNHYTQKSLSLSPGK
heavy 2: QVQLQQPGAELVKPGASVKLSCKASGYTFTSYWMHWVKQSPGRGLEWIGRSDPTTGGTNYNEKFKTKATLTVDKPSSTAYMQLSSLTSDDSAVYYCVRTSGTGDYWGQGTSLTVSSASTKGPSVFPLAPSSKSTSGGTAALGCLVKDYFPEPVTVSWNSGALTSGVHTFPAVLQSSGLYSLSSVVTVPSSSLGTQTYICNVNHKPSNTKVDKKVEPKSCDKTHTCPPCPAPEAAGGPSVFLFPPKPKDTLMISRTPEVTCVVVDVSHEDPEVKFNWYVDGVEVHNAKTKPREEQYNSTYRVVSVLTVLHQDWLNGKEYKCKVSNKALGAPIEKTISKAKGQPREPQVYTLPPSRDELTKNQVSLSCAVKGFYPSDIAVEWESNGQPENNYKTTPPVLDSDGSFFLVSKLTVDKSRWQQGNVFSCSVMHEALHNHYTQKSLSLSPGK
light: B1 VL
For B2, binding in test [1] was put at a Kd of 2.27 nM.

These data come from patent publication US20200277373A1 (published 2020).
